Assay results taken from the supplement of paper PMC9170038.

System: MS2 coat protein
Assay: apparent KD of MS2 coat protein; designed switch direction (-1 OFF switch, 1 ON switch): -1; higher = weaker reporter binding
Summary of the method: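 Apparent KD, taken as the median over clusters for each design, was obtained by curve-fitting normalised cluster fluorescence. Designed RNA switches had been transcribed on Illumina chips by stalled E. coli RNA polymerase and titrated with SNAP-549-labelled MS2 coat protein, doubling from 0.7 or 1.5 nM to 3 µM.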

[1] = input ligand: microRNA oligo, concentration not stated
[2] = Eterna round: R95, input ligand: FMN 200 uM
[3] = Eterna round: R95, input ligand: microRNA oligo, concentration not stated
[4] = Eterna round: R95, input ligand: none

Sequence	apparent KD of MS2 coat protein (input ligand: FMN 200 uM)	apparent KD of MS2 coat protein [1]	apparent KD of MS2 coat protein (input ligand: none)	apparent KD of MS2 coat protein [2]	apparent KD of MS2 coat protein [3]	apparent KD of MS2 coat protein [4]
GUGCUAUAGGAAGGAUAUACUUCAUUAUUUAGACAUGAGGAUCACCCAUGUAACCUUAUGUAUGUGUAGAAGGUCCAUAGCUUA (Eterna round: R96, puzzle: Exclusion NG 2)	93.2 nM	35.1 nM	38.8 nM			
AGCGUGGAGACAGGAUAUGAGAAUAGAUAGAACUCAGAAGGGUCACAUGAGGAUCACCCAUGUAAAGUCUUGAGGCUGCGUGGU [Prohibition 7 - Jieux - Exclusion NG 1] (Eterna round: R96, puzzle: Exclusion NG 1)	341 nM	74.1 nM	109 nM			
AGUUGUUGCGCAGGAUAUGAGGAUCACCCAUAGUAGGAUAUCGAAAGGGAAGGACUGAGGAUUACCCAGAAGGGCGUGAUGACA [pwkr exNG2 2xF5 2xFMN.7] (Eterna round: R96, puzzle: Exclusion NG 2)	1530 nM	292 nM	302 nM			
CCCAGGGCAGGAUAUAGAGGGUGAAACAUGAGGAUCACCCAUGUGACCUCGGAACAGCUGCUAGAAGGGCCAAAUU [Eszaraxe] (puzzle: Exclusion 5)				19.2 nM	15.3 nM	16.3 nM
AUUAAUGUCAAAGGAUAUCAGCACGUGUAGUGCUGAGAAGGUUGAACAUGAGGAUCACCCAUGUAGAUCAUUAAUAAUUUAAUU [ENG1/10-B3] (Eterna round: R96, puzzle: Exclusion NG 1)	25.5 nM	14.5 nM	20.6 nM			
UUCUUAUAUGAAGGAUAUACUUAACAUGAGGAUCACCCAUGUGGUGUUGUGAGUGAGUGAGUUUAGUAGAAGGUCAAUUCUUUU [JMF's solution 95] (Eterna round: R96, puzzle: Exclusion NG 2)	818 nM	326 nM	355 nM			
GGUAGAGUGGUAGGAUAUCCGACUGAAACAGACGGAGAAGGACCACAGUCACUGGGUCCAAAUAUAAUAAACAAUAAAUCUACC [pwkr exNG1 F6.1] (Eterna round: R96, puzzle: Exclusion NG 1)	307 nM	212 nM	331 nM			
AUCAUGUAAGGAUAUCUUAUAUGGAUCUUCGGAUCAAGUUAAGAGAAGGUACAUGAGGAUCACCCAUGUAUAAC [Ex4-3: 32] (puzzle: Exclusion 4)					24.3 nM	
GCUCGAAGGAGUGGGAGCAACAUGAGGAUCACCCAUGUGCGGCUAUUUCAUGCUCGUCUUAAAGCUUUGCCCUAGCC [Eternabot (Original) Solution 40] (Eterna round: R97, puzzle: Sensor, turn-off variant 1)	17.2 nM		18.5 nM			
GGCGCACAUGAGGAUCACCCAUGUGAGGAUAUGUGGCGAUCGUCGAUAGACGAUAGCCACAGAAGGCACAUGCC [Mat - Exclusion 1 - Eli Mod - D20] (Eterna round: R97, puzzle: Exclusion 1)	74 nM		33.3 nM			
ACAAGCUUAAAGGUGAAUAACAUGAGGAUCACCCAUGUUCGUCUUAUAAAAAUAAAAAUAAAAAAUAAAAAAUAAAA [Sensor V2: 62] (Eterna round: R96, puzzle: Sensor v2, turn-off variant)	25.6 nM	87.2 nM	27.9 nM			
CAGUACGGAGGAUAUACAUGAGGAUCACCCAUGUACGCGGGUGUCACUGGGAGAACUUGUAGAAGGCCGAGUCC [Eternabot (L1) Solution 8] (Eterna round: R97, puzzle: Exclusion 3)	196 nM		107 nM			
CUCCAUGCCCAGGCUUAGAACAUGAGGAUCACCCAUGUAGAUCCAGAAAAUUUGCUCGUCAGGCAAUUUAUAGAUUG [Eternabot (L1) Solution 9] (Eterna round: R97, puzzle: Sensor, turn-off variant 1)	500 nM		687 nM			
CGUACUGAAGUGAGGAUAUUGUCUCGGAUACGAAACAAGAAGGCACAUGAGGAUCACCCAUGUAAACAGUACGA [Malc #30 mod 10] (puzzle: Brourd's mod of Exclusion 4)					15.6 nM	
CUAGUCCGAGGAUAUAUUAAGUGAUACAUGAGGAUCACCCAUGUUAUUUAAUGGAUGUUAAUAGAAGGCGGACUAG [Mat - Exclusion 5 - JL mod - D76] (puzzle: Exclusion 5)				55 nM	37.7 nM	77.8 nM
UGAGAACAUGAGGAUCACCCAUGUAAGGAUAUGCGAAGAGUUUGGAGAGGUUGAGGAGGCAGAAGGUACGGGAG [JR_Exclu1_Sub045] (puzzle: Exclusion 1)				50.2 nM	49.9 nM	74.3 nM
AAGAAACAUGAGGAUCACCCAUGUCAGGAUAUCCGAAAAGAAAAGAAAAGAAAAGAAAGGAGAAGGGACAAAAG [Default title] (puzzle: Exclusion 1)				40.7 nM	26.6 nM	76 nM
GAUAGAGAGCAGGAUAUCUUGGGUAAGUGUUGUAGAGAAGGGCUCACAUGAGGAUCACCCAUGUGGUCCUAGAU [JL Dibiri mod 08] (puzzle: Exclusion 6)				33.5 nM	14.5 nM	11.3 nM

Sequence	apparent KD of MS2 coat protein (input ligand: FMN 200 uM)	apparent KD of MS2 coat protein [1]	apparent KD of MS2 coat protein (input ligand: none)	apparent KD of MS2 coat protein [2]	apparent KD of MS2 coat protein [3]	apparent KD of MS2 coat protein [4]
CGGGAGGGACAAGCUUUUUGCACGUCUGUUAUUGAUGCAACAUGAGGAUCACCCAUGUUUAGGGUGUGAGAGGAUGG [JR_SV3TOV2_Sub051] (puzzle: Sensor v3, turn-off variant 2)				373 nM	471 nM	553 nM
AAAAGGCUAGGAUAUACCAGUGGGUGUAAGAACUCAAAUUUACAUGAGGAUCACCCAUGUAGAAGGAGUAAAAU [Dilaed] (puzzle: Exclusion 2)					19.5 nM	
UUUUGCUCAGGAUAUACAUGAGGAUCACCCAUGUAUAUUGAAAAUAAUACAUGGGAAUGUAGAAGGGAGCUCAU [Omei Ex3 Pseudoloop 20] (Eterna round: R97, puzzle: Exclusion 3)	127 nM		168 nM			
GUGGCAUGAGGAUAUCGAGGUUAGUACAUGAGGAUCACCCAUGUUAUCCAGGUGUCGGUUCGAGAAGGCAUGGCAC [LRO-Ex5-13] (puzzle: Exclusion 5)					250 nM	
GAUUAUGCGAGCUUUAGGGACAUGAGGAUCACCCAUGUUCGUCUUGUUGAUCUAGGUACACUAACAUACCUAAAUCU [JMF 16] (puzzle: Sensor v3, turn-off variant 1)				19.9 nM	28.5 nM	21.9 nM
AUCAUGUAAGGAUAUCUUACAUGUGACUUCGGUCACAGUUAAGAGAAGGUACAUGAGGAUCACCCAUGUAUAAC [Ex4-3: 37] (puzzle: Exclusion 4)					25.3 nM	
AGCGAUCAUGUUAGGAUAUCCAAGCAGACGCUCAAGGAGAAGGAACAUGAGGAUCACCCAUGUUUGAUCCAAAC [Usrediza] (Eterna round: R97, puzzle: Brourd's mod of Exclusion 4)	104 nM		19.7 nM			
UAGAAACAUGAGGAUCACCCAUGUGAGGAUAUGGCCCGCCCGGCGUGAGCUGGUUUUGUCAGAAGGCGCAUAGG [salish99_ex1_r4_020] (Eterna round: R97, puzzle: Exclusion 1)	115 nM		71.1 nM			
AAGAAACAUGAGGAUCACCCAUGUGAGGAUAUGAUUAAGAAAAGAAAAGAAAGAAGACUCAGAAGGCACAAAGG [salish99-ex1_r3_069] (puzzle: Exclusion 1)				55.5 nM	80.9 nM	45.5 nM
AGAUGCUCAAGUCGACAUGAGGAUCACCCAUGUACAGUUAACGAGGAUAUCCGAGAUAAAUAAUAGGAGAAGGCGUGAUCAUGA [Ex NG3 #3] (Eterna round: R96, puzzle: Exclusion NG 3)	154 nM	78.2 nM	123 nM			
UGGGAACGAGGAUAUCGAUGGUGGAACAUGAGGAUCACCCAUGUAUGAGAUAGUGUAGGGCGAGAAGGCGUUAAGU [JR_E5_Sub052] (puzzle: Exclusion 5)					76.7 nM	
CAUCCACAUGAGGAUCACCCAUGUCAGGAUAUCGCGCGCGCGUUUUCGGUCUUUCGCGCGAGAAGGGACGACUG (puzzle: Exclusion 1)					13.3 nM	
UGAUUCCUAGGAUAUGCUGGAUAUGAGGUCCCGAGUUGCCGACAUGAGGAUCACCCAUGUAGAAGGAGGUGUCG [Eternabot (L1) Solution 66] (Eterna round: R97, puzzle: Exclusion 2)	199 nM		105 nM			
AAGAAACGAGGAUAUACAGUUGAGUGAGAGAGGGAAGUGUUACAUGAGGAUCACCCAUGUAGAAGGCGUGAGAG [JR_Exclu2_Sub088] (puzzle: Exclusion 2)				32.9 nM	31.4 nM	33.6 nM
UUGUACAUAGGAUAUAGUUGUUUGUACAUGAGGAUCACCCAUGUUAUGUAUGUUUUGCUUCUAGAAGGAUGUUGUU [JR_E5_Sub004] (puzzle: Exclusion 5)					28 nM	
GGAUAAAAUCGAGGAUAUACGCACCACUAACGAGUAGAAGGCGAACAUGAGGAUCACCCAUGUGAGUUCUCAAUAAGAAACACG [Prohibition 68 - Jieux - Exclusion NG 1] (Eterna round: R96, puzzle: Exclusion NG 1)	40.5 nM	23.9 nM	35.1 nM			
AAUAACAGAGGAUAUACUAUUUUAUGUGUUUAUUGUUUUGAACAUGAGGAUCACCCAUGUAGAAGGCUGAUUAA [JMF 51] (puzzle: Exclusion 2)					35.3 nM	
